Here are results for 3 substances from PMC12442389.

For test [1], the target named is cyuLyz2 (amino acids 266 to 473, glucosaminidase domain of PlyCYU) (Streptococcus suis (prophage λSa2%2C)). The experiment in a line: SEC-MALS; Superdex 200 Increase 5/150 GL; 20 mM sodium phosphate, pH 7.0, 150 mM NaCl; 10 µL injected at 10 mg/mL; 0.2 mL/min; self-association, oligomeric number from mass over subunit mass. (Size exclusion chromatography separates by hydrodynamic size, large species first.)

Test [2] has the same target. The test is described as follows: SEC; SEC-UV; Superdex 200 Increase 10/300 GL; 50 mM phosphate buffer, pH 7.5, 150 mM NaCl; 0.1-0.4 mg/mL protein; 0.5 mL/min; mass from a calibration curve of standard proteins; PlyCYU214 also with 500 mM NaCl; self-association.
Test [3] addresses CW7_Lyz2 (amino acids 142 to 473, two cpl-7 motifs and the glucosaminidase domain of PlyCYU) (Streptococcus suis (prophage λSa2%2C)). The test is described as follows: SEC-MALS; Superdex 200 Increase 5/150 GL; 20 mM sodium phosphate, pH 7.0, 150 mM NaCl; 10 µL injected at 10 mg/mL; 0.2 mL/min; self-association, oligomeric number from mass over subunit mass.
For test [4] the target is unchanged. The test is described as follows: SEC; SEC-UV; Superdex 200 Increase 10/300 GL; 50 mM phosphate buffer, pH 7.5, 150 mM NaCl; 0.1-0.4 mg/mL protein; 0.5 mL/min; mass from a calibration curve of standard proteins; PlyCYU214 also with 500 mM NaCl; self-association.
Test [5] has as its target His6-tagged PlyCYU endolysin (full-length) (Streptococcus suis (prophage λSa2%2C)). The test is described as follows: SEC-MALS; Superdex 200 Increase 5/150 GL; 20 mM sodium phosphate, pH 7.0, 150 mM NaCl; 10 µL injected at 10 mg/mL; 0.2 mL/min; self-association, oligomeric number from mass over subunit mass.
For test [6] the target is unchanged. The experiment in a line: SEC; SEC-UV; Superdex 200 Increase 10/300 GL; 50 mM phosphate buffer, pH 7.5, 150 mM NaCl; 0.1-0.4 mg/mL protein; 0.5 mL/min; mass from a calibration curve of standard proteins; PlyCYU214 also with 500 mM NaCl; self-association.

Regarding “cyuLyz2 (amino acids 266 to 473, glucosaminidase domain of PlyCYU) (domain or fragment)”, the stoichiometry N (commonly a count of units in the complex or per binding partner) was 3.9 in test [1] and 6.9 in test [2].

As for “CW7_Lyz2 (amino acids 142 to 473, two cpl-7 motifs and the glucosaminidase domain of PlyCYU) (domain or fragment)”, the stoichiometry N in test [3] was 4.4; in test [4], 11.8.

As to “His6-tagged PlyCYU endolysin (full-length) (enzyme)”, the stoichiometry N in test [5] amounted to 5.2; in test [6] it was 6.8.
